Measured values: US20090042849

Columns and labels:
cycloxygenase-2, P35355 = target: T1, cycloxygenase-2, P35355
T1 chain: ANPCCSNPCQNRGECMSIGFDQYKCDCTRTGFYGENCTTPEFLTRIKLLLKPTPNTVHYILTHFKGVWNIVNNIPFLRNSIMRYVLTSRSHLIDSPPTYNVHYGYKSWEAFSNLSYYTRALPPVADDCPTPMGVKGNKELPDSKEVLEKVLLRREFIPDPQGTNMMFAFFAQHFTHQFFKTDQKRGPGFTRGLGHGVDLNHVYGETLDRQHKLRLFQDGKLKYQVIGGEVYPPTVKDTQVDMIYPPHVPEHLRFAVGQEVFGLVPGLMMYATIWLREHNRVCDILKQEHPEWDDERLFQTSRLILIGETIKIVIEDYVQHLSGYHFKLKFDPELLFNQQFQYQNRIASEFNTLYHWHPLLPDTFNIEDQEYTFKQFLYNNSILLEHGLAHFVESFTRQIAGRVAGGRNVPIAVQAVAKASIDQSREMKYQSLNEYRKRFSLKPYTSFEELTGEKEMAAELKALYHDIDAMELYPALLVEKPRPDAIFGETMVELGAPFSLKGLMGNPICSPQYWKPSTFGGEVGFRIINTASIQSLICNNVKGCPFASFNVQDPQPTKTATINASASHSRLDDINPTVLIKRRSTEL

[1] = target: T2, cytosolic phospholipase A2, P50393
T2 chain: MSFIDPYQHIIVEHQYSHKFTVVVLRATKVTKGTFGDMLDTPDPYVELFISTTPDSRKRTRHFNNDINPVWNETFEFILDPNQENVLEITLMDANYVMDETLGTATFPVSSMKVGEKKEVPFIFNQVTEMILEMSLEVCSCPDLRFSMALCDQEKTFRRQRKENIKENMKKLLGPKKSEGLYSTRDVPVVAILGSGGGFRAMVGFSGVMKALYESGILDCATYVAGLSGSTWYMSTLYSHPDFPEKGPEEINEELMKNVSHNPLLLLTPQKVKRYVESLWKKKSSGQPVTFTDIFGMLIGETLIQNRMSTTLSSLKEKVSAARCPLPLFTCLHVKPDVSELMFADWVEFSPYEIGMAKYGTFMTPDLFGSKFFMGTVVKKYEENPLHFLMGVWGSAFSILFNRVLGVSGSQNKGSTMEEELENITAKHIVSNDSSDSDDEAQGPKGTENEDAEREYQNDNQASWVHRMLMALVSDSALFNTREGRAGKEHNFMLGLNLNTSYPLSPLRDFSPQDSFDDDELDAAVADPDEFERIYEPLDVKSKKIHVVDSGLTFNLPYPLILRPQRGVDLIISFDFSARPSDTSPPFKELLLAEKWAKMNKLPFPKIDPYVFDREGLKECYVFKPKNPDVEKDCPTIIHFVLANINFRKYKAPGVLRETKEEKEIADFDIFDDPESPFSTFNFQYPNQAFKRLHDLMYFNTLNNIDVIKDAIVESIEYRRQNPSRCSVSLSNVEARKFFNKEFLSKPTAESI

B1: 5-lipoxygenase (protein)
chain: MPSYTVTVATGSQWFAGTDDYIYLSLIGSAGCSEKHLLDKAFYNDFERGGRDSYDVTVDEELGEIYLVKIEKRKYRLHDDWYLKYITLKTPHDYIEFPCYRWITGEGEIVLRDGCAKLARDDQIHILKQHRRKELETRQKQYRWMEWNPGFPLSIDAKCHKDLPRDIQFDSEKGVDFVLNYSKAMENLFINRFMHMFQSSWHDFADFEKIFVKISNTISERVKNHWQEDLMFGYQFLNGCNPVLIKRCTELPKKLPVTTEMVECSLERQLSLEQEVQEGNIFIVDYELLDGIDANKTDPCTHQFLAAPICLLYKNLANKIVPIAIQLNQTPGEKNPIFLPTDSKYDWLLAKIWVRSSDFHIHQTITHLLRTHLVSEVFGIAMYRQLPAVHPLFKLLVAHVRFTIAINTKAREQLNCEYGLFDKANATGGGGHVQMVQRAVQDLTYSSLCFPEAIKARGMDNTEDIPYYFYRDDGLLVWEAIQSFTTEVVSIYYEDDQVVEEDQELQDFVKDVYVYGMRGRKASGFPKSIKSREKLSEYLTVVIFTASAQHAAVNFGQYDWCSWIPNAPPTMRAPPPTAKGVVTIEQIVDTLPDRGRSCWHLGAVWALSQFQENELFLGMYPEEHFIEKPVKEAMIRFRKNLEAIVSVIAERNKNKKLPYYYLSPDRIPNSVAI
B1 was tested, and the 15ELXA production (cycloxygenase-2, P35355) was “it interacted with COX2 in the cytosolic fraction (FIG. 11) to generate 15ELXA (FIG. 9A)” and the LTB4 production [1] was 5-lipoxygenase co-immunoprecipitated with cPLA2 (FIG. 10) and metabolized arachidonic acid, generated by cPLA2, into LTB4.
